In patent US20250388889A1 (priority 2019, published 2025):
Several values for one entry are separate records, joined by “and”; a condition that tells them apart may be missing. Identical values can stand only once. Entries after “also recorded” stand apart in the source; their conditions may differ. Marks after values point to notes of the source that are not given here.

How the values were obtained:
[1] = tested on: c-MYC; format: cell-based, human
[2] = tested on: MB49 bladder tumors; conditions: mouse, in vivo
[3] = tested on: A498 kidney epithelial cells; format: cell-based, human
[4] = target: CK1α1 (Homo sapiens, UniProt P48729)
Experimental: Kidney epithelial cells were stained with rabbit anti-c-MYC (Abcam), rabbit anti-CK1α1 (Cell Signaling Technology), rabbit anti-c-MYB (Sigma Aldrich), rabbit anti-CEBPD (Abcam) or mouse anti-his6-tag primary antibodies (1:200 in 5% FBS/PBS, overnight at 4° C.), followed by secondary goat anti-rabbit Alexa Fluor 488-conjugated or goat-anti mouse Alexa Fluor 568-conjugated antibodies (Molecular Probes, A-11034) (1:200 in 5% FBS and 0.025% Triton X-100/PBS, 1 hour at room temperature). Cells were counterstained with DRAQ5 (Abcam) and examined using a LSM 510 META laser scanning confocal microscope (Carl Zeiss). Fluorescence signal was quantified in 50 cells per condition using Image J.
Cells were lysed with NP-40 lysis buffer supplemented with protease and phosphatase inhibitors (Roche diagnostics). Proteins were run on SDS-PAGE (4-12% Bis-Tris gels, Invitrogen), blotted onto PVDF membranes (Biorad), blocked and stained with primary rabbit anti-c-MYC (1:1000, Abcam), rabbit anti-CK1α1 (1:1000, Cell Signaling Technology) or rabbit-anti-Lon (1:2000, Biorbyt) overnight at 4° C. Membranes were washed and stained with HRP-conjugated goat anti-rabbit HRP conjugated secondary antibodies (1:4000, Cell Signaling) washed again, imaged using ECL plus detection reagent (GE Healthcare) and quantified by ImageJ. β-actin was used as a loading control.

[5] = tested on: CK1α1; format: cell-based, human
[6] = tested on: c-MYB; format: cell-based, human
[7] = target: T1, MAX (Homo sapiens, UniProt P61244); assay: In vitro degradation assay, MAX; format: biochemical
Experimental: (§1) 0.1 μg of recombinant proteins were incubated with 0.2 μg of Lon protease (Abcam, ab141921), or PBS, in a reaction buffer consisting of 20 mM MgCl2 in the presence of ATP (2 mM) in 50 mM Tris. pH 8.0. Proteins were incubated at 37° C. for 60, 120 or 240 minutes and were denatured using 10 mM DTT in NuPAGE Sample Buffer at 100° C. for 5 minutes before further analysis.

[8] = target: GRP75 (Homo sapiens, UniProt P38646); assay: In vitro degradation assay, GRP75; format: biochemical
Experimental: as §1

[9] = target: T2, c-MYC (Homo sapiens, UniProt P01106); format: binding
T2 construct: GST

[10] = target: T2, c-MYC; assay: In vitro degradation assay of recombinant c-MYC by Lon protease; format: biochemical
Experimental: […] Proteins were incubated at 37° C. for 60, 120 or 240 minutes and were denatured using 10 mM DTT in NuPAGE Sample Buffer at 100° C. for 5 minutes before further analysis.
Samples were diluted with NuPAGE LDS sample buffer (Invitrogen) mixed with 10 mM dithiotreitol (DTT) and incubated at 56° C. for 20 min followed by addition of iodoacetamide (IAA) to a final concentration of 20 mM. Samples were loaded on 4-12% NuPAGE (Invitrogen). The electrophoresis was run in MOPS buffer. The gel was Coomassie stained and bands of interest were excised from the SDS-PAGE and trypsin digested, followed by identification using LC-MS/MS as per above. MS/MS spectra were investigated with PEAKS (version 10) against UniProt Human (released 2020 Feb. 21) where the sequence for GST-tag-MYC had been added. The precursor tolerance and fragment tolerance were set to 10 ppm and 0.05 Da, respectively. None enzyme was selected, methionine oxidation and deamidation of asparagine and glutamine were treated as dynamic modification and carbamidomethylation of cysteine as a fixed modification.

[11] = tested on: c-MYC; format: cell-based, human; remark: listed apart in the source
[12] = tested on: CEBP-δ; format: cell-based, human
[13] = tested on: intestinal polyps; parameters: species or system C57BL/6J-APC^min/J mice; conditions: mouse, in vivo
[14] = tested on: human kidney cells
[15] = mouse, in vivo
[16] = tested on: HH3; format: biochemical
[17] = target: CDK9 (Homo sapiens, UniProt P50750); assay: In vitro degradation assay, CDK9; format: biochemical
Experimental: as §1

[18] = target: CBEB1 (Homo sapiens, UniProt Q9BZB8); assay: In vitro degradation assay, CPEB1; format: biochemical
Experimental: as §1

[19] = mouse, in vivo; remark: listed apart in the source
[20] = tested on: Actin; format: biochemical
[21] = tested on: AKT; format: biochemical
[22] = target: T1, MAX; format: binding

T2 sequence (P01106 16-454): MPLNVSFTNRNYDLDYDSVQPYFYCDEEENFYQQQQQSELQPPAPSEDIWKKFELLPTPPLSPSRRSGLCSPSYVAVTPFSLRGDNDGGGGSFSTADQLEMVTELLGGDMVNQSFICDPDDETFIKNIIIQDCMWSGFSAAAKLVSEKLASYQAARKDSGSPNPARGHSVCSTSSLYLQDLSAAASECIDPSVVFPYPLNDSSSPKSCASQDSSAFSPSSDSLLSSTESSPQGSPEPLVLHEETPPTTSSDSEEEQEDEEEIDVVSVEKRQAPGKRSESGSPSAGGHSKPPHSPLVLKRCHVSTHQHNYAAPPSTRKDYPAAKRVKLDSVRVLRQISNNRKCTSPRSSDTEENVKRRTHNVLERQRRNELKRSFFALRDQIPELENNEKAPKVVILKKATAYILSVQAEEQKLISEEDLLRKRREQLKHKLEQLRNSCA
CK1α1 (Homo sapiens, UniProt P48729), sequence (P48729 whole entry): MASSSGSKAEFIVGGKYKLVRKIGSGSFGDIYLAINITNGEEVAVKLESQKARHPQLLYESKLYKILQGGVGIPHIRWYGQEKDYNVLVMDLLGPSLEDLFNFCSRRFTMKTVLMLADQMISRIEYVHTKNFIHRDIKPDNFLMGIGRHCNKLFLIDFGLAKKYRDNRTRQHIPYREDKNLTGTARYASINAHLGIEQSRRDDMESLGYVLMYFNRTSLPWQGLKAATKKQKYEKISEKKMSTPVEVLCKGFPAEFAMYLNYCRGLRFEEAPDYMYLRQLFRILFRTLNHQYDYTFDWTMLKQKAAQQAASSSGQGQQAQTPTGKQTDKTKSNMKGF
T1 sequence (P61244 whole entry, species assumed): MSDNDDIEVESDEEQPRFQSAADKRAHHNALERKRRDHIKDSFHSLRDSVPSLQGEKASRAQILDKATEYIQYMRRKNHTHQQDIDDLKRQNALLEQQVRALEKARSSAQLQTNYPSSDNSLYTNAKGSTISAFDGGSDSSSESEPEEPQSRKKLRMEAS
CDK9, sequence (P50750 whole entry, species assumed): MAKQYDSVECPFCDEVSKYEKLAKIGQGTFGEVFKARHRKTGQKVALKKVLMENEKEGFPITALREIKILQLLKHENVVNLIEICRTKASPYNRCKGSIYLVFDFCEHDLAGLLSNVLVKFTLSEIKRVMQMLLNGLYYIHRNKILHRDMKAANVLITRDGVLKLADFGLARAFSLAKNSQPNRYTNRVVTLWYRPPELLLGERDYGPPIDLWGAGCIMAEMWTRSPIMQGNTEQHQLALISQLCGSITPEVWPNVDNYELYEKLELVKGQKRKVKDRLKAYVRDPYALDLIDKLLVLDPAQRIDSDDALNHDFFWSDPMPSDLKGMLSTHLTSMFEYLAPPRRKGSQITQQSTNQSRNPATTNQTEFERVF
CBEB1, sequence (Q9BZB8 whole entry): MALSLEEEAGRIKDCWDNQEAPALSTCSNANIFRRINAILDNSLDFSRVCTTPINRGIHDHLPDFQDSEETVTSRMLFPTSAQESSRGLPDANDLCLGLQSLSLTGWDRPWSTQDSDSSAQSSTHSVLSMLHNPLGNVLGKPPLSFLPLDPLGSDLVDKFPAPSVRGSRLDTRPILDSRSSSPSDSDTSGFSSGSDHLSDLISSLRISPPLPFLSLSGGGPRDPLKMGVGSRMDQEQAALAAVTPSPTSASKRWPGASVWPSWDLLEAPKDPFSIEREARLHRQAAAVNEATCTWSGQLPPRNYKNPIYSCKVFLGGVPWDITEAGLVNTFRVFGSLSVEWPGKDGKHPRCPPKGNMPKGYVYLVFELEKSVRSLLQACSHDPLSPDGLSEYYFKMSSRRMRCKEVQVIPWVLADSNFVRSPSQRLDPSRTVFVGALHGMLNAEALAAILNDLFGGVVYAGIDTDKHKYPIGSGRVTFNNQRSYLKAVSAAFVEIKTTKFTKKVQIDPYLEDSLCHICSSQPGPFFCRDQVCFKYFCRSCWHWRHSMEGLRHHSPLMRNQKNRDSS
GRP75, sequence (P38646 47-679, species assumed): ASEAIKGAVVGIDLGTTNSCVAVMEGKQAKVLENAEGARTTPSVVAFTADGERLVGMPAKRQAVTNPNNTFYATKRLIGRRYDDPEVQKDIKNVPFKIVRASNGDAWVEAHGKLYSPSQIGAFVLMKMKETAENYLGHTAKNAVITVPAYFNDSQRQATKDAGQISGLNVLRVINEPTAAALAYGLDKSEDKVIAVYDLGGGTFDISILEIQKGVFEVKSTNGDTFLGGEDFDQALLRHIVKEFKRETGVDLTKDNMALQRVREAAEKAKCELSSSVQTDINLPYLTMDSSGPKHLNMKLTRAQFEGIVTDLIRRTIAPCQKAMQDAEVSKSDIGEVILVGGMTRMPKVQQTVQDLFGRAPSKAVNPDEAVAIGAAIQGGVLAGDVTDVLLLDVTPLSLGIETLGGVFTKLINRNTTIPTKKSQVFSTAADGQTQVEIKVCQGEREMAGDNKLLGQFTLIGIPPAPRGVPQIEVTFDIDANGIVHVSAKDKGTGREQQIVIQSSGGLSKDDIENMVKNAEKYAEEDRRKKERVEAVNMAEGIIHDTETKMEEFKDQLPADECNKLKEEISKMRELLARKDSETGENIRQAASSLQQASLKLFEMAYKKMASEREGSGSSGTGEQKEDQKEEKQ

[Ca+2].[Cl-].[Cl-] [CaCl2]
Effect of metal ion pretreatment of E. coli 536 on c-MYC inhibition [1]: no effect

[Cl-].[Cl-].[Zn+2] [ZnCl2]
Effect of metal ion pretreatment of E. coli 536 on c-MYC inhibition [1]: reversed c-MYC inhibition | Effect of treating the active E. coli 536 supernatant on MYC levels in host cells [1]: did not affect MYC levels in host cells

COc1cccc2c1C(=O)c1c(O)c3c(c(O)c1C2=O)C[C@@](O)(C(=O)CO)C[C@@H]3O[C@H]1C[C@H](N)[C@@H](O)[C@H](C)O1 [Epirubicin, reference compound]
Bladder size % Sham (range) [2]: 65 (53-70)^b % Sham | Bladder weight g^−1 (range) [2]: 3.9 (3.2-4.8)^b g^−1

O=C(N/N=C/c1ccc(O)c(O)c1)c1cc2ccccc2cc1O [Dynasore]
Lon protease staining and uptake after endocytosis inhibitor pre-treatment [3]: reduced Lon protease staining and uptake

CO[C@@]12[C@H](COC(N)=O)C3=C(C(=O)C(C)=C(N)C3=O)N1C[C@@H]1N[C@@H]12 [Mitomycin, reference compound]
Bladder size % Sham (range) [2]: 67 (54-87)^b % Sham | Bladder weight g^−1 (range) [2]: 4 (3.4-5.9)^b g^−1

COc1cc(OC)c(C=C2C(O)=Nc3ccccc32)c(OC)c1 [IC261]
Effect on c-MYC degradation in infected cells ([4]; 100 μg/ml, 30 minutes pre-treatment, E. coli 536): reduced c-MYC degradation | Effect on c-MYB inhibition by E. coli 536 ([4]; 30 minutes): reversed c-MYB inhibition

O=C(O)CN(CCOCCOCCN(CC(=O)O)CC(=O)O)CC(=O)O [EGTA, Egtazic acid]
Effect on CK1α1 activation [5]: inhibited the activation of CK1α1

[Cl][Mn][Cl] [MnCl2]
Effect of metal ion pretreatment of E. coli 536 on c-MYC inhibition [1]: no effect

O=c1c(O)c(-c2ccc(O)c(O)c2)oc2cc(O)cc(O)c12 [Quercetin]
Lon protease staining and uptake after endocytosis inhibitor pre-treatment [3]: reduced Lon protease staining and uptake

[Cl-].[Cl-].[Mg+2] [MgCl2]
Effect of metal ion pretreatment of E. coli 536 on c-MYC inhibition [1]: no effect

B1: Lon protease: Recombinant bacterial (E. coli) ATP-dependent serine peptidase Lon, commercially produced in E. coli K12 (protein, UniProt P0A9M0 2-784, looked up)
Lon protease: NPERSERIEIPVLPLRDVVVYPHMVIPLFVGREKSIRCLEAAMDHDKKIMLVAQKEASTDEPGVNDLFTVGTVASILQMLKLPDGTVKVLVEGLQRARISALSDNGEHFSAKAEYLESPTIDEREQEVLVRTAISQFEGYIKLNKKIPPEVLTSLNSIDDPARLADTIAAHMPLKLADKQSVLEMSDVNERLEYLMAMMESEIDLLQVEKRIRNRVKKQMEKSQREYYLNEQMKAIQKELGEMDDAPDENEALKRKIDAAKMPKEAKEKAEAELQKLKMMSPMSAEATVVRGYIDWMVQVPWNARSKVKKDLRQAQEILDTDHYGLERVKDRILEYLAVQSRVNKIKGPILCLVGPPGVGKTSLGQSIAKATGRKYVRMALGGVRDEAEIRGHRRTYIGSMPGKLIQKMAKVGVKNPLFLLDEIDKMSSDMRGDPASALLEVLDPEQNVAFSDHYLEVDYDLSDVMFVATSNSMNIPAPLLDRMEVIRLSGYTEDEKLNIAKRHLLPKQIERNALKKGELTVDDSAIIGIIRYYTREAGVRGLEREISKLCRKAVKQLLLDKSLKHIEINGDNLHDYLGVQRFDYGRADNENRVGQVTGLAWTEVGGDLLTIETACVPGKGKLTYTGSLGEVMQESIQAALTVVRARAEKLGINPDFYEKRDIHVHVPEGATPKDGPSAGIAMCTALVSCLTGNPVRADVAMTGEITLRGQVLPIGGLKEKLLAAHRGGIKTVLIPFENKRDLEEIPDNVIADLDIHPVKRIEEVLTLALQNEPSGMQVVTAK
c-MYB decrease compared to PBS [6]: 45% | Degradation of MAX in vitro [7]: not detected | Degradation of GRP75 in vitro [8]: not degraded | Binding to c-MYC by co-immunoprecipitation [9]: verified; also recorded: dose-dependent | c-MYC degradation, comparative analysis of protein degradation ([10]; FIG. 17i): degraded after 3 hours | c-MYC remaining after Lon dependent degradation ([10]; Recombinant c-MYC (1 μg) with Lon protease (2 μg), 37° C., 0 to 4 hours, from 200 ng, n=3): 79 ng | Number of specific c-MYC peptides found after rLon degradation (LC-MS/MS) ([10]; control sample 23 peptides): 10 | c-MYC sequence covered by specific peptides after rLon degradation (LC-MS/MS) ([10]; control sample 51%): 23% | c-MYC degradation in vitro ([10]; recombinant c-MYC, kinetics): degrade recombinant c-MYC in vitro, in a time dependent manner | c-MYC staining in human kidney cells [11]: dose-dependent decrease | CEBP-δ degradation [12]: < 5% | Body weight at long-term follow up compared to sham [13]: increase | Cancer gene networks as share of all regulated genes [13]: 93% | Day until which mice remained asymptomatic [13]: 175 days | Intestinal polyp number at long-term follow up compared to sham [13]: significant reduction | MYC expression and MYC-dependent gene networks [13]: inhibited | Polyp number compared to sham and pre-treatment samples [13]: reduced the polyp number | Subset of colorectal cancer genes [13]: 54% | Survival (Kaplan Mayer plot) [13]: increased survival | Cytotoxic effects in human kidney cells [14]: not detected | MYC-related genes activated [15]: 1 | MYC-related genes inhibited [15]: 8 | Body weight and macroscopic appearance of organs ([15]; po): No change | MYC expression in intestines ([15]; po): not regulated | Degradation of HH3 in vitro [16]: not degraded | Degradation of CDK9 in vitro [17]: not degraded | Degradation of CBEB1 in vitro [18]: not degraded | Bladder weight and macroscopic appearance of the bladder [19]: No change | MYC expression in bladders [19]: not regulated | MYC-dependent genes activated [19]: 33 | MYC-dependent genes inhibited [19]: 1 | Degradation of Actin in vitro [20]: not degraded | Degradation of AKT in vitro [21]: not degraded | Bladder size % Sham (range) [2]: 69 (53-85)^a % Sham | Bladder size, weight and pathology compared to day 12 [2]: remained unchanged | Bladder weight g^−1 (range) [2]: 5.3 (3.9-6.3)^a g^−1 | Bladder weights and pathology scores versus sham [2]: remained lower than in the sham group | Cancer gene networks as share of all regulated genes, compared to sham [2]: 96.6% | Day until which mice remained asymptomatic [2]: 27 days and 34 days | Efficiency compared with E. coli 536 supernatant (tumor progression, gene expression) [2]: more efficient | Expression of genes potentially involved in toxicity, compared with E. coli 536-treated mice [2]: less strongly expressed | Gene expression inhibited compared to the sham group [2]: 95% | Mice with bladder tumors present [2]: 15/15 | Mice with hematuria [2]: 3/15 and 2/12 | Subset of bladder cancer related genes inhibited [2]: 11.8% | Survival (Kaplan Meyer plot) [2]: increased survival | Pull-down of recombinant MAX [22]: Weak pull-down
